Reference: patent publication US20230265516A1 (UNIVERSITY OF ARIZONA ARIZONA BOARD OF REGENTS, published 2023)

Target: T1, nicotinamide phosphoribosyltransferase (NAMPT), secreted form (Homo sapiens (Human), UniProt P43490 1-491)
T1 construct: also called PBEF; visfatin
Experiment: SPR (format not described)

T1 sequence (P43490 whole entry): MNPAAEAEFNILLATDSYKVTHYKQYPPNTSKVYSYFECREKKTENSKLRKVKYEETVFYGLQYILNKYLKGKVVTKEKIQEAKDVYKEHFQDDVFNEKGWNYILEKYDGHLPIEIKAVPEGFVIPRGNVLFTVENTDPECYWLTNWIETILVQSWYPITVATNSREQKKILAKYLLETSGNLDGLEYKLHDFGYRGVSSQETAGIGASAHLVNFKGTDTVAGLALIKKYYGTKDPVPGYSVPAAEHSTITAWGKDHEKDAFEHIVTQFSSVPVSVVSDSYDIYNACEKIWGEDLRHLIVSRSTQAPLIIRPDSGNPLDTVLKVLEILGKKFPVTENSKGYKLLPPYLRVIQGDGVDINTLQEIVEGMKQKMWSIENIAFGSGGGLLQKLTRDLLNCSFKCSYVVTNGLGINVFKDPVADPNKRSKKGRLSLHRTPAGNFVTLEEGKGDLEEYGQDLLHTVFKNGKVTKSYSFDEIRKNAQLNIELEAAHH

B1: humanized anti-NAMPT monoclonal antibody ALT-100 (antibody, V domains shown)
VH: QVQLVQSGAEVTKPGASVKVSCKASGYTFTSYWMQWVRQAPGQGLEWVGEIEPSNSYTNYNQKFRGRVTLTRDTSTTTVYMELSSLRSEDTAVYYCARGGYWGQGTTVTVSS
VL: DIVMTQSPLSLPVTPGEPASISCRSSKSLLHSQGITYLYWYLQKPGQSPQLLIYQLSNRASGVPDRFSGSGSGTDFTLKISRVEAEDVGVYYCVQNLELPYTFGGGTKLEIK
notes: the in vivo control was an IgG1 antibody; also called ALT-100 mAb; Ab3
Kd: 4.5 nM
